Results on 8 molecules are retold here after patent US20140322220A1 (Bayer, published 2014).

Where a chain is given by its changes, count along the chain named. Numbered stars: 1 amine (or outer) side, 2 acyl side, 3 side chain; on linkers, the order of the positions; unused ones are H or OH. Square brackets hold non-standard residues; d marks the D form. Ends that are not written are not given here. * marks the point of attachment. Biotin = O=C1N[C@H]2[C@H](CS[C@H]2CCCCC(=O)*)N1; Ttds = O=C(CCC(=O)[*:2])NCCCOCCOCCOCCCN[*:1]

Sequences and labels used below:
T1: hFGFR4-Fc (human, UniProt P22455 22-369, biotinylated with biotin-LC-NHS)
T1 construct: Bought, R&D Systems, printed Cat. No. 685-MF
T1 sequence (looked up): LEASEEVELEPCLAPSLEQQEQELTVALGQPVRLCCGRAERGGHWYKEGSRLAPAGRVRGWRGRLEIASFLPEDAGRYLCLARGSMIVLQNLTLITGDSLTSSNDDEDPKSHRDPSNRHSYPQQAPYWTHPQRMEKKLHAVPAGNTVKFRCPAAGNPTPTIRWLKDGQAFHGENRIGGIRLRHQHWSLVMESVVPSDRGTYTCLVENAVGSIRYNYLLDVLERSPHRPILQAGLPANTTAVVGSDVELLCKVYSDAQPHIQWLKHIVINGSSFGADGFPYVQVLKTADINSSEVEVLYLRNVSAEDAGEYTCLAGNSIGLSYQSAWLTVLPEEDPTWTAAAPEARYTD

T2: hFGFR1β-Fc (IIIc) (human, UniProt P11362-14 22-285, limits assumed, biotinylated with biotin-LC-NHS)
T2 construct: Bought, R&D Systems 661-FR
T2 sequence (looked up): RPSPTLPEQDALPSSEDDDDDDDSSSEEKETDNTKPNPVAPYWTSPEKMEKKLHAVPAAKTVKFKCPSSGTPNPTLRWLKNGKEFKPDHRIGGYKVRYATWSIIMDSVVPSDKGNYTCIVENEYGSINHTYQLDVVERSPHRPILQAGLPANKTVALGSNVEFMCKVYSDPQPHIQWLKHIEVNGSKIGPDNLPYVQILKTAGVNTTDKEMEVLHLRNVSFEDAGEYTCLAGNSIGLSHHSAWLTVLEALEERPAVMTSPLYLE

T3: hFGFR3-Fc (IIIb) (human, UniProt P22607-2 23-377, biotinylated with biotin-LC-NHS)
T3 construct: Bought, R&D Systems 1264-FR
T3 sequence (looked up): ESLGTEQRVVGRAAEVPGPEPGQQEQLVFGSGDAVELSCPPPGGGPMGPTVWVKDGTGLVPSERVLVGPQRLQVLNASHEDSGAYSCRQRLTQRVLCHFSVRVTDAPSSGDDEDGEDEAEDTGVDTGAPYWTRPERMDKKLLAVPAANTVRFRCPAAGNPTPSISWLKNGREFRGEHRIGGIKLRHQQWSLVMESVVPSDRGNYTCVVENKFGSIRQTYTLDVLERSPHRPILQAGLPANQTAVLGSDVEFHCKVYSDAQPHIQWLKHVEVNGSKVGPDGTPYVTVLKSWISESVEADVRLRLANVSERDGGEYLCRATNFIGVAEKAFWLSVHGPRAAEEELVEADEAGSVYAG

T4: RPSFSLVEDTTLEPEG-Ttds-Lys(Biotin) (human)
T4 construct: Synthesized by JPT Peptide Technology
T4 peptide: RPSFSLVEDTTLEPEG[Ttds]K(Biotin)

T5: hFGFR2β-Fc (IIIb) (human, UniProt P21802 22-377, biotinylated with biotin-LC-NHS)
T5 construct: also called FGFR2-2β Fc (IIIb)
T5 chain: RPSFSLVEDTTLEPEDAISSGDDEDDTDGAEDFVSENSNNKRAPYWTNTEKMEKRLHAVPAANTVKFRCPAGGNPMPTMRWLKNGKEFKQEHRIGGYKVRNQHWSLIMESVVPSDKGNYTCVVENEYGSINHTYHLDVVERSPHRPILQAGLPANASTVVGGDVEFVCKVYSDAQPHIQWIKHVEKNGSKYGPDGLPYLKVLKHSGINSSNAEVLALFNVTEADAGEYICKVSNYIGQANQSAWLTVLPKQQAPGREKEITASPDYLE

T6: hFGFR2α-Fc (IIIb) (human, UniProt P21802 22-377, biotinylated with biotin-LC-NHS)
T6 construct: Bought, R&D Systems 663-FR, soluble Fc fusion
T6 chain: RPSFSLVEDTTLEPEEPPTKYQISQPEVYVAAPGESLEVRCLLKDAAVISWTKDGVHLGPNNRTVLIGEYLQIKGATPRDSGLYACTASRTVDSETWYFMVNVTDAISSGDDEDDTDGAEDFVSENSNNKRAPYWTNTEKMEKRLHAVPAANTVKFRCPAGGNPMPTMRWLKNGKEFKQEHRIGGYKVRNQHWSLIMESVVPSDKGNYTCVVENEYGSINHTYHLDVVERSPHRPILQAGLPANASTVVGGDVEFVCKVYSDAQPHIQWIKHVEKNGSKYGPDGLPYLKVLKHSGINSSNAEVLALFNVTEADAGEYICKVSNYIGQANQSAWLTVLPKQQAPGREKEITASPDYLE

B1: TPP-1398 (antibody, human IgG1, lambda, V domains shown)
VH: EVQLLESGGGLVQPGGSLRLSCAASGFTFSSYAMSWVRQAPGKGLEWVSAISRSGGSTYYADSVKGRFTISRDNSKNTLYLQMNSLRAEDTAVYYCARVRYIWNEGDWFDPWGQGTLVTVSS
VL: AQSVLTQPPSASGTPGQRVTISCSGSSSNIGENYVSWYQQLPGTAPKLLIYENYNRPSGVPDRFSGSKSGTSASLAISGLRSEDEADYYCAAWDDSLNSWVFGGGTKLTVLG
notes: Matured variant of M048-D01
B2: TPP-1399 (antibody, human IgG1, lambda, V domains shown)
VH: B1 VH with R53K, Y59F, I102K, N104G
VL: AQSVLTQPPSASGTPGQRVTISCSGSSSNIGENYVSWYQQLPGTAPKLLIYENYKRPSGVPDRFSGSKSGTSASLAISGLRSEDEADYYCAAWDDSGNSWVFGGGTKLTVLG
notes: Matured variant of M048-D01
B3: TPP-1400 (antibody, human IgG1, lambda, V domains shown)
VH: B1 VH
VL: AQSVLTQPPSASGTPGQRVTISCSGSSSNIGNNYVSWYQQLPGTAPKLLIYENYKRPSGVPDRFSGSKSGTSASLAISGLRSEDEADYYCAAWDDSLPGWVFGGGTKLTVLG
notes: Matured variant of M048-D01
B4: TPP-1402 (antibody, human IgG1, lambda, V domains shown)
VH: B1 VH with R53K, Y59F, E105H
VL: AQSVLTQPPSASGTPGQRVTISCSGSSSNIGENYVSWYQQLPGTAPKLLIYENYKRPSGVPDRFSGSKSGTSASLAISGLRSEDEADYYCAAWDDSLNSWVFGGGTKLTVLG
notes: Matured variant of M048-D01
B5: TPP-1401 (antibody, human IgG1, lambda, V domains shown)
VH: B1 VH with R53K, Y59F
VL: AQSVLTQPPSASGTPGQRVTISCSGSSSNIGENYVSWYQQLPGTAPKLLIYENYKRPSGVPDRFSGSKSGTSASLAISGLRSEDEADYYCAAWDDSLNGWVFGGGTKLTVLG
notes: Matured variant of M048-D01
B6: M017-B02 (soluble Fab) (Fab, V domains shown)
VH: EVQLLESGGGLVQPGGSLRLSCAASGFTFRTSGMHWVRQAPGKGLEWVAVISYDGSNKYYADSVKGRFTISRDNSKNTLYLQMNSLRAEDTAVYYCARESPGYDFEYWGQGTLVTVSS
VL: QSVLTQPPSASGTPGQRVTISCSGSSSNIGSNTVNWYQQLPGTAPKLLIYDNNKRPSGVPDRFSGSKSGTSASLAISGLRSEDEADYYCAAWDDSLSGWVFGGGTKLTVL
notes: Soluble Fab from E. coli, purified through its His-tag
B7: M054-D03 (soluble Fab) (Fab, V domains shown)
VH: B6 VH with R30S, T31N, S32Y, R98K, S100T, P101N, G102D, Y103V, D104P, E106D
VL: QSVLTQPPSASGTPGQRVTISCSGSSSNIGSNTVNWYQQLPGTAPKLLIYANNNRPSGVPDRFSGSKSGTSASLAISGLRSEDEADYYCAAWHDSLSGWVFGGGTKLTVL
notes: as for B6
B8: M047-D08 (soluble Fab) (Fab, V domains shown)
VH: B6 VH
VL: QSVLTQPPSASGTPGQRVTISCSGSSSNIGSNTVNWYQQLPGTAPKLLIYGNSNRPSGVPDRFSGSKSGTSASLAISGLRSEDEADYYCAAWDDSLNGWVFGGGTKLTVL
notes: as for B6

In general, EC50 refers to the concentration needed to bring the measured effect to its halfway point.

The target in the first assay is T7, recombinant human FGFR2 (Met 1-Glu 377) with C-terminal polyhistidine tag (human, UniProt P21802 22-377).
T7 construct: The range is that of the expressed DNA and begins at Met 1; also called His-tagged FGFR2; recombinant human FGFR2-IIIc molecule
The experiment in a line: protein binding ELISA; against TPP-1403. An excerpt: (§1) Two different types of ELISA were used to determine the binding improvement of mutated variants: a) Peptide Binding ELISA: a synthetic peptide comprising the amino acid sequence of the epitope linked C-terminally to a biotinylated lysine […]-Ttds-Lys(Biotin) (peptide sequence derived from SEQ ID NO:63, synthesized by JPT Peptide Technology GmbH, Berlin, Germany), and b) Recombinant Protein Binding ELISA: recombinant human FGFR2 (DNA sequence of human FGFR2 (NP 000132.3) Met 1-Glu 377, fused with a polyhistidine tag at the C-terminus; #10824-1-1081-1, Sin θ Biological Inc., Beijing, China).
(§2) Briefly, in both ELISA formats MTP plates (384 well Maxisorp, Nunc) were coated with 20 μl, anti-human IgG Fc specific (#12136; sigma) at 2.2 μg/ml for 2.5 h at 37° C. in coating buffer (#121125 Candor Bioscience GmbH). […] Anti-FGFR2 variants were immobilized in concentrations of 0.035 μg/ml (peptide based assay) or 0.2 μg/ml (recombinant human FGFR2 protein based assay) in 10% Smart Block in PBST depending on the format and variants to be analyzed by incubation of 20 μl for one hour at 20-22° C. After one washing step using 50 μl PBST, 20 μl quadruplets of the antigen dilution series in 10% SmartBlock in PBST with a maximum concentration of 100 nM were added and incubated for 1 h at 20-22° C. and the washing step was repeated 3 times. For the detection of the biotinylated epitope peptide 20 μl of streptavidine/POD conjugate (# S5512, Sigma) in a 1:1000 dilution in 10% SmartBlock in PBST were applied for one hour at 20-22° C. For the detection of the recombinant FGFR2 protein 20 μl of anti-His/HRP conjugate (#71840, novagen) in a 1:10000 dilution in 10% SmartBlock in PBST were applied for one hour at 20-22° C. After 3 washing steps 20 μl of 10 μM amplex red substrate (# A12222, Invitrogen) in 50 mM Sodium hydrogen phosphate, pH 7.6, were added and the fluorescence signal was detected using a common fluorescence reader, e.g. Tecan M1000. EC50 values were evaluated by fitting the data (Sigmoida) dose-response, variable slope, bottom set to background; GraphPad Prism software).
(ELISA stands for enzyme-linked immunosorbent assay.)
Regarding B1, the “fold EC50 reduction” value is 39 fold.
The same measure, in the same setting: then B2, with 39 fold; and B3, with 17 fold; and B4, with 37 fold.
Same read-out and setting: the figure for B5 is 39 fold.

The target of a further assay is T1, hFGFR4-Fc. The assay can be described thus: ELISA on coated biotinylated Fc fusion. The protocol:
(§3) For the ELISA 96-well plates pre-coated with streptavidin (Pierce, 15500) were coated over night at 4° C. with 1 μg/ml biotinylated protein. Wells coated with biotinylated TRAIL-Fc served as a reference. The next day plates were washed 3 times with PBST, treated with blocking reagent, and washed again 3 times with PBST. 100 μl of purified Fabs (1 μg/ml) were added and incubated for 1 h at r.t. After washing 3 times with PBST, an anti-hIgG (Fab-specific) coupled to HRP (1:2500 diluted; Sigma; A 0293) was added and incubated for 1 h at Lt. Color reaction was developed by addition of 50 μl TMB (Invitrogen, 2023) and stopped after 5-15 min by adding 50 μl H₂SO₄ (Merck, 1120801000). Colorimetric reaction was recorded at […] in a plate reader (Tecan). Wells containing TRAIL-Fc were used as background values and the signal to background ratios were calculated as summarized in Table 4.
As to B6, the binding result is “no binding”.
Same read-out and setting: then B7, with “no binding”; and B8, with “no binding”.

For another assay, the target named is T2, hFGFR1β-Fc (IIIc). The assay can be described thus: ELISA on coated biotinylated Fc fusion. The protocol:
as §3
Turning to B6, the binding result was “no binding”.
The same measure, in the same setting: the entry for B7 is “no binding”; for B8 it is “no binding”.

A further assay concerns the target T3, hFGFR3-Fc (IIIb). The experiment in a line: ELISA on coated biotinylated Fc fusion. The protocol: as §3
Regarding B6, the binding result is “no binding”.
As for B7, the binding result is recorded as “no binding”.
For B8, the binding result was “no binding”.

For the next assay, the target named is T4, RPSFSLVEDTTLEPEG-Ttds-Lys(Biotin). The assay can be described thus: peptide binding ELISA, antibody captured by anti-human IgG Fc, biotinylated peptide titrated.
From the text: as §1, §2
The molecule B1 returned an EC50 of 5 pM.
As for B2, it took 6 pM to reach a half-maximal effect (EC50).
Same read-out and setting: the figure for B3 is 9 pM.
The same measure, in the same setting: the figure for B4 is 7 pM; for B5 it is 6 pM.

The next assay concerns the target T5, hFGFR2β-Fc (IIIb). The experiment in a line: ELISA, 1 ug/ml Fab on coated antigen; grade of signal to background (+ 2-3, ++ 3-5, +++ >5). Here is the method: as §3
As for B6, the “ELISA signal to background ratio” value is > 5 ratio.
Consider B7, for which the “ELISA signal to background ratio” value lay in the range of 2 to 3 ratio.
B8: the “ELISA signal to background ratio” value was > 5 ratio.

In a further assay the target is T8, mFGFR2β-Fc (IIIb) (murine, UniProt P21803-2 22-263, limits assumed, biotinylated with biotin-LC-NHS).
T8 construct: Bought, R&D Systems 708-MF
T8 sequence (P21803 other isoform, or with tags, fused parts or gaps limits assumed): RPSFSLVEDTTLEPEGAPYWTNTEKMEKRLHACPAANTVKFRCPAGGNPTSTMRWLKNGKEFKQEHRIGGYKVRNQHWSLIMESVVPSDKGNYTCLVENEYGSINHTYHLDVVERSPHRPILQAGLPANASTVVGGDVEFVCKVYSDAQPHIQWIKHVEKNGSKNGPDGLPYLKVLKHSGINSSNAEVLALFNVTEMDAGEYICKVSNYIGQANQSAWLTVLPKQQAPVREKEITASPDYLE
Described as above. Here is the method:
as §3
As to B6, the “ELISA signal to background ratio” value is > 5 ratio.
As for B7, the “ELISA signal to background ratio” value was in the range of 3 to 5 ratio.
Same read-out and setting: then B8, with > 5 ratio.

In the next assay the target is T6, hFGFR2α-Fc (IIIb). The description is as above. Here is the method: as §3
As for B6, the “ELISA signal to background ratio” value is > 5 ratio.
On the same count and under the same terms, then B7, with 3 to 5 ratio.
Still for that read-out and setting: then B8, with > 5 ratio.

The target of another assay is T4, RPSFSLVEDTTLEPEG-Ttds-Lys(Biotin). The experiment in a line: peptide binding ELISA; against TPP-1403.
From the text: as §1, §2
With B1, the “fold EC50 reduction” value was > 2000 fold.
Take B2: the “fold EC50 reduction” value was > 1500 fold.
In the case of B3, the “fold EC50 reduction” value is > 1100 fold.
For B4, the “fold EC50 reduction” value was > 1500 fold.
Consider B5, for which the “fold EC50 reduction” value is > 1700 fold.

The next assay deals with T7, recombinant human FGFR2 (Met 1-Glu 377) …. The experiment in a line: protein binding ELISA, antibody captured by anti-human IgG Fc, FGFR2-His titrated.
From the text: as §1, §2
For the molecule B1, the EC50 is 200 pM.
In the case of B2, the EC50 amounted to 210 pM.
Same read-out and setting: then B3, with 480 pM; and B4, with 220 pM; and B5, with 200 pM.
